Consider 5 sequences from a protein production outcome set (Wang et al. 2014).
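Further: failed if final PepcDB status was selected cloned or expressed and not failed if soluble or beyond.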

The series is described as follows: label from the status in PepcDB records.
“MKPQLSWKVGGQQGEGIESTGEIFATAMNRKGYYLYGYRHFSSRIKGGHTNNKIRVSTTPVHAISDDLDILIAFDQETIDVNHHEMREDSIILADAKAKPVKPEGCHAQLIELPFTATAKELGTALMKNMVAIGATSALMNLNTNTFEELITNMFSKKGDKVVEVNIQALNEGYQLMQSRLPEIDGDFELESTDALPHLYMIGNDAIGLGAIAAGSQFMAAYPITPASEVMEYMIANISKVNGAVIQTEDEIAAVTMAIGANYGGVRAFTASAGPGLSLMMEAIGLSGMTETPLVIINTQRGGPSTGLPTKQEQSDLMQMIYGTHGDIPKIVVAPTDAEDAFYLTMEAFNLAEQYQCPVIVLSDLQLSLGKQTVEKLDYNRIEIKRGEIIQSDIEREEDDKGYFKRYALTSNGVSPRPIPGVKGGIHHITGVEHNEEGKPSESASNRQQQMEKRMRKIEQLLIESPVEANLQHEDADILYIGFISTKGAIQEGSNRLNQQGIKVNTIQIRQLHPFPTSVIQDAVNKAKKVVVVEHNYQGQLASIIKMNVNIHDKIENYTKYDGTPFLPHEIEEKGKIIATEIKEMV”: the protein production result is reported as “not failed”.

Consider “MKPRNIAIACGVAGVAVSLAAATGIVYHKQIKSAASLKRLTGYADGYDLYAIDIAYDYDLNRIIAAGVRDDQAYIDAVVAQVLPGVPVHVQAPQFACSAFVAVDAEGRVRTGRNYDFKDDTSALLVRNHPRGGYASIGFAALNNLGDNTPLDSVAGRAAALMGPFGQLDGVNECGVSIAVLTLDSKPCDQDAQRPVINTSLAIRLVLDRAATTQEAVDLLSAYDMHAMAGRDYHFFINDAAGDARVVEWDPRDPDRAFKATPVRQVTNFYACYGDEVLPNQKNGELGHGKERAIAIADVLDAHVGAQDEAVAWKALRAAAQEPNPKDITSNTQWSVVFDNTEPAAAITLRRHWGDVDAFAL”, for which the protein production result is on record as “failed”.

Consider “MKPSFKKLLLLFSIITILSIACTPHAKASGRSWKSWFIEQYFWLKRDKSYYKVQDESSFQKYLNASREQSDKGYYLDPNSVNGGLVQERLFDMQVYSWNDNGKANQKTIFYLAGGSYLNNPTPYHISMLKTLSTSLDAKIILPIYPKTPRYTYDYAIPRLVNLYRHFHEKNANLTLMGDSAGGGLALGLAHALSHQSGQEAIPQPKNIILLSPWLDVTMKHPEIPKYEDTDPILSAWGLARVGEIWANGSNNTNHTYVSPKNAPATKLAPITLFTGTREIFFPDIRDYAAQLQAANHPVNYIAQEGMNHVYPIYPIEEAKTAQYQMIDIINKTP”, for which the protein production entry is reported as “failed”.

Turning to “MKPSQWTLRWVTLCGCGMLAASAAAVELPGTVQPSQLDERFKPRSEPQAKPEAPLVVPKQVAPQGSEQIRFKLREIRIEGNTRYDKAVLESYYQHMLGEQVSLAELVDLANRLTAKYRQDGFLLTQVVVPEQSIEGGKVRLQVIEGYLEHVQIKGTVDGPRVRVEELLAPLTEKRPLDADTLERGLLLVGDLPGVNVQSVLSPGQALGSSNLDVALQQQRYEGFVSLDNRGSHYTDPTTLAFGATEFSRLGFYEQIDVLGAISPFSDATRYIQLRGTLPLGGMFAGDTLQIMGSYSKVNPDIPDSVFPFDSVSKSTEGSISYNHPFIRSRSQNLSGGLALQWKDTETRLRDFASDASNPGRDHVRVFQQRLTYDWVDRWMGINLAEVRNNIGLDMWGATKKDDERRSREVADGRFVYLNGNIGRLQGLGGPWSVYGELQWQYSFDPLLPSERFGVGGSGIGRGFAPGNITGDRGFALKLEPRYGQAVGYSWLRSYQAYAFYDWGKTYNLDVDDDEQQKLGSIGAGVRFNLTDQLSFNPEIARQVIGEPADQRDGKRETRVLFNVVARF”, the protein production result is listed as “failed”.

For “MKQILFLLAAVLLLGGCAEEKKTDVRWATFNIRYDNPQDSLNNWQYRKDRVCQFIKDHELDIVGMQEVLHNQFQDLRAGLPEYDGIGVGRDDGKTAGEYAPLFYRKDKYEVLDSNTFWLAENPDSVGMMGWDAVCVRIATWAKFKDKATGKIFMAVNTHFDHVGEEARRQSALLIIRKIKEIVGERPAVVTGDFNVTDASDAYETITTNEFVMKDAYKTAARVTGVDYTFHDFARIPAEDCEKIDFIFVTPQVLVKSCEIPAEVPEALLSDHNPQLADLEF”, the protein production entry is listed as “failed”.
